For test [1], the target named is LRP1 Cluster IV (commercial) (Homo sapiens). Description: SPR.
In test [2] the target is T1, LRP1 CR.7 singlet (human, UniProt Q07954 1013-1053). Description: SPR; CR.7 expressed with RAP (RAP+). (In general: In SPR one partner is held on a chip, and binding of the other changes the refractive index at the surface.)
Test [3] addresses T1, LRP1 CR.7 singlet. Briefly: SPR; CR.7 expressed without RAP (RAP-).
For test [4], the target named is T2, vLDLR CR cluster (8 CRs), recombinant, secreted from Sf9 cells (human, UniProt P98155 28-355). Briefly: SPR; vLDLR cluster expressed with RAP (RAP+).
The target of test [5] is T2, vLDLR CR cluster (8 CRs), recombinant, …. Briefly: SPR; vLDLR cluster expressed without RAP (RAP-).

T1 sequence (Q07954 1013-1053): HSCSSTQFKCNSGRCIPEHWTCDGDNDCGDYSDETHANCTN
Sequence of LRP1 Cluster IV (commercial) (Homo sapiens) (chain, as listed by the source): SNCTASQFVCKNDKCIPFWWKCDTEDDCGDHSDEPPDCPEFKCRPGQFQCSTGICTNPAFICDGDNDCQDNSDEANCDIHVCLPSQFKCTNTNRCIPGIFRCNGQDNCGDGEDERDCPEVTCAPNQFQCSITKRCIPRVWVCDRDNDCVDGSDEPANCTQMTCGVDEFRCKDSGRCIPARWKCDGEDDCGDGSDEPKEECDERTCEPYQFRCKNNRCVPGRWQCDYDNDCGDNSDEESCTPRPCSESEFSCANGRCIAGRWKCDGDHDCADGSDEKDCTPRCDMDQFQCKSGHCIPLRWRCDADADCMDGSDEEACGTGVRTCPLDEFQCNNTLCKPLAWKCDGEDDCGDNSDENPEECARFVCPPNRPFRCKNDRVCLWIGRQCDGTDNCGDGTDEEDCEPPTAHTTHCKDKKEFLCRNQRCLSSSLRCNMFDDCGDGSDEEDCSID

B1: RAP (commercial; R&D, 4296-LR) (natural protein)
chain: YSREKNQPKPSPKRESGEEFRMEKLNQLWEKAQRLHLPPVRLAELHADLKIQERDELAWKKLKLDGLDEDGEKEARLIRNLNVILAKYGLDGKKDARQVTSNSLSGTQEDGLDDPRLEKLWHKAKTSGKFSGEELDKLWREFLHHKEKVHEYNVLLETLSRTEEIHENVISPSDLSDIKGSVLHSRHTELKEKLRSINQGLDRLRRVSHQGYSTEAEFEEPRVIDLWDLAQSANLTDKELEAFREELKHFEAKIEKHNHYQKQLEIAHEKLRHAESVGDGERVSRSREKHALLEGRTKELGYTVKKHLQDLSGRISRARHNEL
modifications: Limits by convention: cluster IV = CR.21-31 (LDL-receptor class A repeats 21-31); vendor limits are not printed. Likely supplied as an Fc chimera, as for commercial cluster II (Fc omitted; may be a dimer). Ca2+-bound, three disulfides per CR.
On to B1, for which the Kd (in general, the concentration at which binding is half-saturated) in test [1] is ~2.5 nM.

B2: RAP (commercial; R&D, 4296-LR) (natural protein)
chain: B1 chain
With B2, the Kd in test [2] was 37.6 nM; in test [3], 67.9 nM; in test [4], ~1.6 nM; in test [5], ~1.7 nM.

(Values after article PMC8239462 (2021).)
